The values that follow are results of earlier work, collected in PMC6340931.

Data set [1] concerns the target Neurotensin (Homo sapiens) (UniProt P30990).
Data set [2] deals with Sortilin-derived propeptide (SDP) Gln1-Arg44 (Homo sapiens) (UniProt Q99523).
For data set [3] the target is unchanged. The source holds these as a separate data set.

Like-named read-outs stand apart in the source and are kept apart here.

As to Sortilin (from UniProt Q99523), the Kd in data set [1] is 0.3 nM.
Sortilin mature (from UniProt Q99523): in data set [2], the Kd is 5 nM.
As for TREK-1 (from UniProt O95069), the Kd in data set [3] was 5 nM.
